{"source": "patent US20140004107A1", "molecular_target": "human ST2 on human primary cells (human) (UniProt Q01638)", "sequence (Q01638 19-556 A78X)": "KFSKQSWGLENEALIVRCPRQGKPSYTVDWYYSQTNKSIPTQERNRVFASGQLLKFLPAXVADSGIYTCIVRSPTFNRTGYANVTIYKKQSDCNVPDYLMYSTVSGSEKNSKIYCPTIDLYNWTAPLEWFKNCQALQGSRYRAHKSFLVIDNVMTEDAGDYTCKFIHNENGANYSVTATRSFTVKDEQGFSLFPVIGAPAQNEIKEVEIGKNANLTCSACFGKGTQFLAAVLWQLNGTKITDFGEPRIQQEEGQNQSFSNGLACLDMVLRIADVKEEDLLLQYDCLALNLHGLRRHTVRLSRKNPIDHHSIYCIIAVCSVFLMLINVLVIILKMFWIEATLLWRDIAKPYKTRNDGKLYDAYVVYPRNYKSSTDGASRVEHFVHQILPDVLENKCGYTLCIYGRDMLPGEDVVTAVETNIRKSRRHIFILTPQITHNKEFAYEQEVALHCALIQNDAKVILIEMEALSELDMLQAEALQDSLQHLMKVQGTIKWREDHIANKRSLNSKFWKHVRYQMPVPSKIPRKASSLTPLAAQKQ", "test": "cell-based or functional assay"}
{"substance": "97203 (antibody)", "values": [{"measurement": "IC50 of inhibition of IL-33-dependent IFN-γ response of human NK cells (IL-33 10 ng/mL plus IL-12)", "value": 0.385, "unit": "µg/mL"}]}
